Source: publication PMC4163360

Target: selenomethionyl (Se-Met) labeled MJ0927 (Methanocaldococcus jannaschii)
Test: crystal structure; Se-Met MJ0927, P2_(1) crystal form, MAD phasing; crystals grown at 4°C, 5% PEG3350, 0.1 M sodium acetate pH 5.0, 0.3 M sodium formate, 0.1 M ammonium sulfate, 3% PGA-LM; six molecules in the asymmetric unit

Substance “selenomethionyl (Se-Met) labeled MJ0927 (natural protein)” has a stoichiometry N of 6.
